# Source: paper PMC2712671
# Target: His6-tagged MogR_(1-162) (Listeria monocytogenes) (UniProt P0DJO8)
# Assay: crystal structure
substance,measurement,value
His6-tagged MogR_(1-162) (from UniProt P0DJO8 1-162) (domain or fragment),stoichiometry N,2
